Patent US20160096882A1

Legend:
Experiment in all cases: cell-based or functional assay
[1] = molecular target: H3N2 Wisconsin/67/05 hemagglutinin (Influenza A virus H3N2 Wisconsin/67/05)
[2] = molecular target: H5N1 Vietnam/1203/04 hemagglutinin (Influenza A virus H5N1 Vietnam/1203/04)
[3] = molecular target: H1N1 New Caledonia/20/99 hemagglutinin (Influenza A virus H1N1 New Caledonia/20/99)

B1: 1286-A11 antibody (antibody, V domains shown)
VH: QVQLQQSGPRLVKPSQTLSLTCAISGDSVSGDSGTWNWIRQSPSRGLEWLGRTYYRSKWYNDYAESVKSRIVIKADTSKNEFSLQLNSVTPEDTAIYYCARAGVKIFGLIVGALDNWGRGTLVTVSS
VL: EIVMTQSPGTLSLSPGERATLSCRASQSVSSSYLAWYQQKPGQAPRLLIYGASTRATGVPDRFHGGGSGTDFTLTISRLEPEDFAVYYCQQYDTSSGLTFGGGTKVEIK
Neutralization MIC [1]: > 333 µg/mL
Neutralization MIC [2]: 333 µg/mL
Neutralization MIC [3]: 83 µg/mL
